Measured values: patent US7588931B2, “High arachidonic acid producing strains of Yarrowia lipolytica” (E. I. du Pont de Nemours and Company, priority 2004, dated 2009)

B1: D8SF: completely corrected synthetic codon-optimized Δ8 desaturase gene, SEQ ID NO:48 (protein)
chain: MVKSKRQALPLTIDGTTYDVSAWVNFHPGGAEIIENYQGRDATDAFMVMHSQEAFDKLKRMPKINPSSELPPQAAVNEAQEDFRKLREELIATGMFDASPLWYSYKISTTLGLGVLGYFLMVQYQMYFIGAVLLGMHYQQMGWLSHDICHHQTFKNRNWNNLVGLVFGNGLQGFSVTWWKDRHNAHHSATNVQGHDPDIDNLPLLAWSEDDVTRASPISRKLIQFQQYYFLVICILLRFIWCFQSVLTVRSLKDRDNQFYRSQYKKEAIGLALHWTLKTLFHLFFMPSILTSLLVFFVSELVGGFGIAIVVFMNHYPLEKIGDSVWDGHGFSVGQIHETMNIRRGIITDWFFGGLNYQIEHHLWPTLPRHNLTAVSYQVEQLCQKHNLPYRNPLPHEGLVILLRYLAVFARMAEKQPAGKAL
modifications: D8SF: synthetic delta-8 desaturase (codon-optimized for Yarrowia lipolytica)
B2: M. alpina Δ6 desaturase: GenBank AF465281; codon-optimized gene SEQ ID NO:3 (protein, listed as Mortierella alpina)
chain: MAAAPSVRTFTRAEVLNAEALNEGKKDAEAPFLMIIDNKVYDVREFVPDHPGGSVILTHVGKDGTDVFDTFHPEAAWETLANFYVGDIDESDRDIKNDDFAAEVRKLRTLFQSLGYYDSSKAYYAFKVSFNLCIWGLSTVIVAKWGQTSTLANVLSAALLGLFWQQCGWLAHDFLHHQVFQDRFWGDLFGAFLGGVCQGFSSSWWKDKHNTHHAAPNVHGEDPDIDTHPLLTWSEHALEMFSDVPDEELTRMWSRFMVLNQTWFYFPILSFARLSWCLQSILFVLPNGQAHKPSGARVPISLVEQLSLAMHWTWYLATMFLFIKDPVNMLVYFLVSQAVCGNLLAIVFSLNHNGMPVISKEEAVDMDFFTKQIITGRDVHPGLFANWFTGGLNYQIEHHLFPSMPRHNFSKIQPAVETLCKKYNVRYHTTGMIEGTAEVFSRLNEVSKATSKMGKAQ
modifications: misc_feature: synthetic delta-6 desaturase (codon-optimized)
B3: S. diclina Δ17 desaturase: US 2003/0196217 A1; codon-optimized gene SEQ ID NO:16 (protein, listed as Saprolegnia diclina)
chain: MAEDKTKVEFPTLTELKHSIPNACFESNLGLSLYYTARAIFNASASAALLYAARSTPFIADNVLLHALVCATYIYVQGVIFWGFFTVGHDCGHSAFSRYHSVNFIIGCIMHSAILTPFESWRVTHRHHHKNTGNIDKDEIFYPHRSVKDLQDVRQWVYTLGGAWFVYLKVGYAPRTMSHFDPWDPLLLRRASAVIVSLGVWAAFFAAYAYLTYSLGFAVMGLYYYAPLFVFASFLVITTFLHHNDEATPWYGDSEWTYVKGNLSSVDRSYGAFVDNLSHHIGTHQVHHLFPIIPHYKLNEATKHFAAAYPHLVRRNDEPIITAFFKTAHLFVNYGAVPETAQIFTLKESAAAAKAKSD
modifications: misc_feature: synthetic delta-17 desaturase (codon-optimized)
B4: IgD9e: synthetic codon-optimized Δ9 elongase gene, SEQ ID NO:41 (protein)
chain: MALANDAGERIWAAVTDPEILIGTFSYLLLKPLLRNSGLVDEKKGAYRTSMIWYNVLLALFSALSFYVTATALGWDYGTGAWLRRQTGDTPQPLFQCPSPVWDSKLFTWTAKAFYYSKYVEYLDTAWLVLKGKRVSFLQAFHHFGAPWDVYLGIRLHNEGVWIFMFFNSFIHTIMYTYYGLTAAGYKFKAKPLITAMQICQFVGGFLLVWDYINVPCFNSDKGKLFSWAFNYAYVGSVFLLFCHFFYQDNLATKKSAKAGKQL
modifications: IgD9e: synthetic delta-9 elongase (codon-optimized for Yarrowia lipolytica)
B5: Isochrysis galbana Δ9 elongase: codon-optimized gene SEQ ID NO:41 (protein)
chain: MALANDAGERIWAAVTDPEILIGTFSYLLLKPLLRNSGLVDEKKGAYRTSMIWYNVLLALFSALSFYVTATALGWDYGTGAWLRRQTGDTPQPLFQCPSPVWDSKLFTWTAKAFYYSKYVEYLDTAWLVLKGKRVSFLQAFHHFGAPWDVYLGIRLHNEGVWIFMFFNSFIHTIMYTYYGLTAAGYKFKAKPLITAMQICQFVGGFLLVWDYINVPCFNSDKGKLFSWAFNYAYVGSVFLLFCHFFYQDNLATKKSAKAGKQL
modifications: IgD9e: synthetic delta-9 elongase (codon-optimized for Yarrowia lipolytica)
B6: Y. lipolytica Δ12 desaturase: native Yarrowia lipolytica Δ12 desaturase, SEQ ID NOs:23 and 24 (protein, listed as Yarrowia lipolytica)
chain: MDSTTQTNTGTGKVAVQPPTAFIKPIEKVSEPVYDTFGNEFTPPDYSIKDILDAIPQECYKRSYVKSYSYVARDCFFIAVFAYMAYAYLPLIPSASGRAVAWAMYSIVQGLFGTGLWVLAHECGHSAFSDSNTVNNVTGWVLHSSMLVPYYAWKLTHSMHHKSTGHLTRDMVFVPKDRKEFMENRGAHDWSELAEDAPLMTLYGLITQQVFGWPLYLLSYVTGQKYPKLNKWAVNHFNPNAPLFEKKDWFNIWISNVGIGITMSVIAYSINRWGLASVTLYYLIPYLWVNHWLVAITYLQHTDPTLPHYHADQWNFTRGAAATIDREFGFIGSFCFHDIIETHVLHHYVSRIPFYNARIATEKIKKVMGKHYRHDDTNFIKSLYTVARTCQFVEGKEGIQMFRNVNGVGVAPDGLPSKK
B7: M. alpina high affinity C18/20 elongase: GenBank AX464731; codon-optimized gene SEQ ID NO:19 (protein, listed as Mortierella alpina)
chain: MESIAPFLPSKMPQDLFMDLASAIGVRAAPYVDPLEAALVAQAEKYIPTIVHHTRGFLVAVESPLARELPLMNPFHVLLIVLAYLVTVFVGMQIMKNFERFEVKTFSLLHNFCLVSISAYMCGGILYEAYQANYGLFENAADHTFKGLPMAKMIWLFYFSKIMEFVDTMIMVLKKNNRQISFLHVYHHSSIFTIWWLVTFVAPNGEAYFSAALNSFIHVIMYGYYFLSALGFKQVSFIKFYITRSQMTQFCMMSVQSSWDMYAMKVLGRPGYPFFITALLWFYMWTMLGLFYNFYRKNAKLAKQAKADAAKEKARKLQ
modifications: misc_feature: synthetic elongase 1 (codon-optimized)
B8: T. aureum C18/20 elongase: codon-optimized gene SEQ ID NO:22 (protein, listed as Thraustochytrium aureum)
chain: MANSSVWDDVVGRVETGVDQWMDGAKPYALTDGLPMMDVSTMLAFEVGYMAMLLFGIPIMKQMEKPFELKTIKLLHNLFLFGLSLYMCVETIRQAILGGYKVFGNDMEKGNESHAQGMSRIVYVFYVSKAYEFLDTAIMILCKKFNQVSFLHVYHHATIFAIWWAIAKYAPGGDAYFSVILNSFVHTVMYAYYFFSSQGFGFVKPIKPYITTLQMTQFMAMLVQSLYDYLFPCDYPQALVQLLGVYMITLLALFGNFFVQSYLKKPKKSKTN
modifications: misc_feature: synthetic elongase (codon-optimized)

System: Yarrowia lipolytica
Experiment: Percent substrate conversion of desaturases and elongases expressed in Yarrowia lipolytica
Format: cell-based
Conditions: for percent (%) substrate conversion of the codon-optimized gene: transformants of strain Y2031, MM, 2 days; for Codon-Opt. Gene % Sub. Conv. / Native Gene % Sub. Conv.: percent substrate conversion; for Codon-Opt. Gene % Sub. Conv.: codon-optimized gene expressed in Y. lipolytica; for Native Gene % Sub. Conv.: expressed in Y. lipolytica
Description: The terms “conversion efficiency” and “percent substrate conversion” refer to the efficiency by which a particular enzyme (e.g., a desaturase or elongase) can convert substrate to product. The conversion efficiency is measured according to the following formula: ([product]/[substrate+product])*100, where ‘product’ includes the immediate product and all products in the pathway derived from it.
With respect to Δ12 desaturase, Applicants have made the surprising discovery that the Fusarium moniliforme Δ12 desaturase (encoded by SEQ ID NO:27) functions with greater efficiency than the native Yarrowia lipolytica Δ12 desaturase in producing 18:2 in Y. lipolytica (see WO 2005/047485). Specifically, expression of the F. moniliforme Δ12 desaturase under the control of the TEF promoter in Y. lipolytica was determined to produce higher levels of 18:2 (68% product accumulation of LA) than were previously attainable by expression of a chimeric gene encoding the Y. lipolytica Δ12 desaturase under the control of the TEF promoter (59% product accumulation of LA). This corresponds to a difference in percent substrate conversion (calculated as ([18:2+18:3]/[18:1+18:2+18:3])*100) of 85% versus 74%, respectively.
In the present invention, several desaturase and elongase genes from Table 5 were codon-optimized for expression in Yarrowia lipolytica, based on the host preferences described above. This was possible by first determining the Y. lipolytica codon usage profile (see WO 04/101757) and identifying those codons that were preferred. Then, for further optimization of gene expression in Y. lipolytica, the consensus sequence around the ‘ATG’ initiation codon was determined (i.e., ‘MAMMATGNHS’ (SEQ ID NO:356), wherein the nucleic acid degeneracy code used is as follows: M=A/C; S═C/G; H=A/C/T; and N=A/C/G/T). Table 7, below, compares the activity of native and codon-optimized genes when expressed in Y. lipolytica and provides details about each codon-optimized gene. % Sub. Conv. is the abbeviation for “percent substrate conversion” and Codon-Opt. is an abbreviation for “codon-optimized”.
Construct pDMW237 (FIG. 8C), an auto-replication plasmid comprising a chimeric FBAIN::1 g D9e::Pex20 gene, was transformed into Y. lipolytica Y2031 strain (Example 4) as described in the General Methods. Three transformants of Y2031 with pDMW237 were grown individually in MM media for two days and the cells were collected by centrifugation, lipids were extracted, and fatty acid methyl esters were prepared by trans-esterification, and subsequently analyzed with a Hewlett-Packard 6890 GC.
Construct pDMW297 was then used for transformation of strain Y2031 (Example 5) according to the General Methods. The transformant cells were plated onto MM selection media plates and maintained at 30° C. for 2 to 3 days. A total of 8 transformants grown on the MM plates were picked and re-streaked onto fresh MM plates. Once grown, these strains were individually inoculated into liquid MM at 30° C. and shaken at 250 rpm/min for 2 days. The cells were collected by centrifugation, lipids were extracted, and fatty acid methyl esters were prepared by trans-esterification, and subsequently analyzed with a Hewlett-Packard 6890 GC.

[1] = under the control of the TEF promoter in Y. lipolytica

| Molecule | Codon-Opt. Gene % Sub. Conv. | Native Gene % Sub. Conv. | also measured |
| --- | --- | --- | --- |
| B1 | – | – | percent (%) substrate conversion of the codon-optimized gene: 75% |
| B2 | 42% | 30% | – |
| B3 | 45% | 23% | – |
| B4 | – | – | percent (%) substrate conversion of the codon-optimized gene: about 13% |
| B5 | 30% | – | – |
| B6 | – | – | percent substrate conversion (calculated as ([18:2+18:3]/[18:1+18:2+18:3])*100) [1]: 74%; product accumulation of LA [1]: 59% |
| B7 | 47% | 30% | – |
| B8 | 46% | 33% | – |
